In CN116355088A:

Experiments:
生物素标记的抗原多肽 (human) = 生物素标记的抗原多肽 (human) (UniProt P29400); test: BLI (Fortebio Octet), biotinylated peptide on SA biosensor, antibody at 100 to 1.56 nM
人IV型胶原蛋白α5链多肽 (human) = 人IV型胶原蛋白α5链多肽 (human) (UniProt P29400); test: indirect ELISA, plate coated with 0.5 μg/ml peptide, purified antibody in 3-fold dilutions from 1 μg/ml

- Kd (生物素标记的抗原多肽 (human)): 3.18 nM
- EC50 (人IV型胶原蛋白α5链多肽 (human)): 0.0221 µg/mL
B1: 18G6-2 (antibody, V domains shown)
VH: QVQLQQPGAELVKPGASVKVSCKASGYTFTNYWMHWVKQRPGQGLEWIGRIHPSDSAINYSPKFTGKATLTVDKSSSTAYMQLTSLTSEDSAVYYCAIGGYDSYWGQGTLVTVSA
VL: DIQMTQTTSSLSASLGDRVTISCRASQDISNYLNWYQQKPDGTVKLLIYYTSTLHSGVPSRFSGSGSGTDYSLTINSLAQEDIATYFCQQVNTLPWTFGGGTKLAIK
